The source of these data is patent publication US20190350938A1 (BROAD INSTITUTE, published 2019).

T1: P2D SLC16A11^REF-V5 (human, UniProt Q8NCK7 1-447)
T1 construct: bait of the proteomics study; also called P2D WT SLC16A11; WT SLC16A11
T1 sequence: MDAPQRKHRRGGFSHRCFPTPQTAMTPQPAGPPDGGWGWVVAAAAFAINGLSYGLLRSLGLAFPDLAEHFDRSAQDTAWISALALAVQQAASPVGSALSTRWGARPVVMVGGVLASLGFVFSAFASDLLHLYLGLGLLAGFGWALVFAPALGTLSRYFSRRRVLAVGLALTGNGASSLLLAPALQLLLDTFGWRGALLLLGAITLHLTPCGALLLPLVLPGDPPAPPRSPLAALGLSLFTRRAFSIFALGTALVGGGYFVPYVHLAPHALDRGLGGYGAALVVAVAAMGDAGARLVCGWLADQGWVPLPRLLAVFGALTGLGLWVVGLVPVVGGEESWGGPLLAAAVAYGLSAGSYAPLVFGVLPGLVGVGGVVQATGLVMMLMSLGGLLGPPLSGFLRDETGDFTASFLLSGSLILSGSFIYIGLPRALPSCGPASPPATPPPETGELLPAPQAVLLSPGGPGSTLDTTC

B1: SLC16A11^T2D-V5 (other, not shown: small tags and cut ends)
chain: MPAPQRKHRRGGFSHRCFPTPQTAMTPQPAGPPDGGWGWVVAAAAFAINGLSYGLLRSLGLAFPDLAEHFDRSAQDTAWISALALAVQQAASPVGSALSTRWGARPVVMVGGILASLGFVFSAFASGLLHLYLGLGLLAGFGWALVFAPALGTLSRYFSRRRVLAVGLALTGNGASSLLLAPALQLLLDTFGWRGALLLLGAITLHLTPCGALLLPLVLPGDPPAPPRSPLAALGLSLFTRRAFSIFALGTALVGGGYFVPYVHLAPHALDRGLGGYGAALVVAVAAMGDAGARLVCGWLADQGWVPLPRLLAVFGALTGLGLWVVGLVPVVGGEESWGSPLLAAAVAYGLSAGSYAPLVFGVLPGLVGVGGVVQATGLVMMLMSLGGLLGPPLSGFLRDETGDFTASFLLSGSLILSGSFIYIGLPRALPSCGPASPPATPTPETGELLPAPQAVLLSPGGPGSTLDTTCLPTFLYKVVGKPIPNPLLGLDST
B2: Basigin (other, human, UniProt P35613-2 22-269, looked up)
chain: AAGTVFTTVEDLGSKILLTCSLNDSATEVTGHRWLKGGVVLKEDALPGQKTEFKVDSDDQWGEYSCVFLPEPMGTANIQLHGPPRVKAVKSSEHINEGETAMLVCKSESVPPVTDWAWYKITDSEDKALMNGSESRFFVSSSQGRSELHIENLNMEADPGQYRCNGTSSKGSDQAIITLRVRSHLAALWPFLGIVAEVLVLVTIIFIYEKRRKPEDVLDDDDAGSAPLKSSGQHQNDKGKNVRQRNSS
modifications: glycosylated (runs as multiple bands)
notes: Endogenous protein co-precipitated from HEK293T lysate; also called BSG; endogenous BSG
B3: Embigin (protein, human, UniProt Q6PCB8 33-327, looked up)
chain: DGSAPDSPFTSPPLREEIMANNFSLESHNISLTEHSSMPVEKNITLERPSNVNLTCQFTTSGDLNAVNVTWKKDGEQLENNYLVSATGSTLYTQYRFTIINSKQMGSYSCFFREEKEQRGTFNFKVPELHGKNKPLISYVGDSTVLTCKCQNCFPLNWTWYSSNGSVKVPVGVQMNKYVINGTYANETKLKITQLLEEDGESYWCRALFQLGESEEHIELVVLSYLVPLKPFLVIVAEVILLVATILLCEKYTQKKKKHSDEGKEFEQIEQLKSDDSNGIENNVPRHRKNESLGQ

The first test deals with B2. The experiment in a line: cell-based or functional assay.
As for B1, the “pyruvate influx and efflux rates (pyronic FRET assay, 293T cells)” value was ~0.5 fold of WT SLC16A11.

Another test deals with T1, P2D SLC16A11^REF-V5. As to the kind of experiment: anti-V5 IP of P2D SLC16A11REF-V5 from HEK293T lysate, iTRAQ quantitative MS; enrichment vs empty vector control IP.
In the case of SEC61A2 (from UniProt Q9H9S3 1-476), the B.A. logFC came out at 1.59 logFC and the BA log fold change (log fold change) amounted to 1.59.

Regarding PSMA3 (from UniProt P25788 2-255), the BA log fold change (log fold change) is 1.09.

Turning to PPP6R3 (from UniProt Q5H9R7 1-879), the BA log fold change (log fold change) is 1.18.

As for “LPCAT1 (from UniProt Q8NF37 1-534) (enzyme)”, the BA log fold change (log fold change) is 1.16.

As for DNAJC3 (from UniProt Q13217 32-504), the BA log fold change (log fold change) is 1.22.

As to ATP1B3 (from UniProt P54709 1-279), the BA log fold change (log fold change) was found to be 1.18.

As for “7-dehydrocholesterol reductase (from UniProt Q9UBM7 1-475) (enzyme)”, the B.A. logFC is 1.69 logFC and the BA log fold change (log fold change) was 1.69.

Consider TIMM23B (from UniProt Q5SRD1 1-188), for which the B.A. logFC was 1.22 logFC and the BA log fold change (log fold change) stood at 1.22.

With GCN1L1 (from UniProt Q92616 2-2671), the BA log fold change (log fold change) turned out to be 1.01.

As to “PHGDH (from UniProt O43175 2-533) (enzyme)”, the BA log fold change (log fold change) turned out to be 1.11.

With SEC61A1 (from UniProt B4DR61 1-482), the B.A. logFC was determined as 1.84 logFC and the BA log fold change (log fold change) was 1.84.

Regarding VDAC2 (from UniProt P45880 1-309), the BA log fold change (log fold change) was 1.14.

On to ADCK4 (from UniProt Q96D53 1-544), for which the BA log fold change (log fold change) was 1.11.

On to “HSD17B12 (from UniProt Q53GQ0 1-312) (enzyme)”, for which the B.A. logFC came out at 1.26 logFC and the BA log fold change (log fold change) was 1.26.

For EMC3 (from UniProt Q9P0I2 2-261), the B.A. logFC amounted to 1.65 logFC and the BA log fold change (log fold change) came out at 1.65.

Take CANX (from UniProt P27824 56-627): the B.A. logFC stood at 1.38 logFC and the BA log fold change (log fold change) was 1.38.

In the case of “Transmembrane protein 33 (from UniProt P57088 2-247)”, the B.A. logFC was 1.25 logFC and the BA log fold change (log fold change) came to 1.25.

For BAG2 (from UniProt O95816 2-211), the B.A. logFC was determined as 1.26 logFC and the BA log fold change (log fold change) was 1.26.

PSMC3 (from UniProt P17980 1-439): the BA log fold change (log fold change) stood at 1.16.

TUBA4A (from UniProt P68366 1-448): the BA log fold change (log fold change) was determined as 1.02.

In the case of “AGPAT6 (from UniProt Q86UL3 38-456) (enzyme)”, the BA log fold change (log fold change) worked out at 1.16.

With PSMD14 (from UniProt O00487 1-310), the B.A. logFC was 1.31 logFC and the BA log fold change (log fold change) is 1.31.

Consider DNAJC7 (from UniProt Q99615 2-494), for which the BA log fold change (log fold change) amounted to 1.05.

In the case of HEATR2 (from UniProt Q86Y56 2-855), the BA log fold change (log fold change) amounted to 1.03.

Turning to DDOST (from UniProt P39656 43-456), the B.A. logFC was 1.65 logFC and the BA log fold change (log fold change) came out at 1.65.

For the molecule XPO5 (from UniProt Q9HAV4 2-1204), the BA log fold change (log fold change) amounted to 1.14.

For the molecule SLC25A3 (from UniProt Q00325 50-361), the B.A. logFC is 1.65 logFC and the BA log fold change (log fold change) is 1.65.

Consider MAGED1 (from UniProt Q9Y5V3 1-834), for which the BA log fold change (log fold change) stood at 1.09.

Regarding “SACM1L (from UniProt Q9NTJ5 1-587) (enzyme)”, the B.A. logFC was determined as 1.26 logFC and the BA log fold change (log fold change) came to 1.26.

On to “E3 ubiquitin-protein ligase RNF5 (from UniProt Q99942 2-180) (enzyme)”, for which the B.A. logFC was found to be 1.42 logFC and the BA log fold change (log fold change) is 1.42.

“TECR (from UniProt Q9NZ01 1-308) (enzyme)”: the BA log fold change (log fold change) worked out at 1.1.

As to SURF4 (from UniProt O15260 2-269), the B.A. logFC was 1.33 logFC and the BA log fold change (log fold change) turned out to be 1.33.

For the molecule “FAS-associated factor 2 (from UniProt Q96CS3 2-445)”, the B.A. logFC worked out at 1.23 logFC and the BA log fold change (log fold change) worked out at 1.23.

With PSMD2 (from UniProt Q13200 1-908), the BA log fold change (log fold change) worked out at 0.98.

On to “Proteasome subunit alpha type-1 (from UniProt P25786 1-269)”, for which the B.A. logFC was determined as 1.2 logFC and the BA log fold change (log fold change) stood at 1.2.

On to KIAA0368 (from UniProt J3KN16 1-2017), for which the BA log fold change (log fold change) turned out to be 1.16.

Turning to UBAC2 (from UniProt Q8NBM4 36-344), the B.A. logFC turned out to be 1.21 logFC and the BA log fold change (log fold change) came out at 1.21.

Turning to AUP1 (from UniProt Q9Y679 1-410), the BA log fold change (log fold change) was found to be 1.1.

As to PSMD12 (from UniProt O00232 2-456), the BA log fold change (log fold change) is 1.18.

Regarding TUBA1B (from UniProt P68363 1-451), the BA log fold change (log fold change) came to 1.05.

Turning to TUBA1C (from UniProt F5H5D3 1-519), the BA log fold change (log fold change) is 1.04.

As to BAG6 (from UniProt P46379 1-1162), the BA log fold change (log fold change) is 1.08.

Regarding SLC25A22 (from UniProt Q9H936 1-323), the BA log fold change (log fold change) came out at 1.2.

DNAJB4 (from UniProt Q9UDY4 2-337): the BA log fold change (log fold change) is 1.08.

On to PSMD11 (from UniProt O00231 1-423), for which the BA log fold change (log fold change) was found to be 1.02.

Consider SCFD1 (from UniProt Q8WVM8 2-642), for which the BA log fold change (log fold change) came out at 1.08.

With “STT3A (from UniProt P46977 1-705) (enzyme)”, the BA log fold change (log fold change) turned out to be 1.27.

As for BRAT1 (from UniProt Q6PJG6 1-821), the BA log fold change (log fold change) stood at 1.04.

Turning to QIL1 (from UniProt Q5XKP0 1-118), the BA log fold change (log fold change) worked out at 1.08.

Take B2: the “BA log fold change” value is 1.43 log fold change.

Regarding B3, the B.A. logFC stood at 1.55 logFC and the BA log fold change (log fold change) is 1.55.
